Assays:
[1] = molecular target: T1, PfMyoA motor domain (amino acids 1-K768) with a T417D mutation (Plasmodium falciparum, UniProt Q8IDR3 1-768, T417D); experiment: cryo-EM structure; PfMyoA motor domain T417D incubated in solution with JAS-stabilized PfAct1 filaments, vitrified within 15 min; nucleotide-free (Rigor) state; helical reconstruction at 3.8 Å; details: both partners purified
T1 construct: Plasmodium falciparum myosin A (PfMyoA) heavy chain, motor domain, amino acids 1-K768, with the phosphomimetic mutation T417D (TEDS site, HCM loop); Residue K768 is followed by a Gly-Ser linker and the C-terminal FLAG tag; Nucleotide-free (Rigor) in the structure; also called PfMD; PfMyoA motor-domain construct with a T417D mutation
T1 sequence: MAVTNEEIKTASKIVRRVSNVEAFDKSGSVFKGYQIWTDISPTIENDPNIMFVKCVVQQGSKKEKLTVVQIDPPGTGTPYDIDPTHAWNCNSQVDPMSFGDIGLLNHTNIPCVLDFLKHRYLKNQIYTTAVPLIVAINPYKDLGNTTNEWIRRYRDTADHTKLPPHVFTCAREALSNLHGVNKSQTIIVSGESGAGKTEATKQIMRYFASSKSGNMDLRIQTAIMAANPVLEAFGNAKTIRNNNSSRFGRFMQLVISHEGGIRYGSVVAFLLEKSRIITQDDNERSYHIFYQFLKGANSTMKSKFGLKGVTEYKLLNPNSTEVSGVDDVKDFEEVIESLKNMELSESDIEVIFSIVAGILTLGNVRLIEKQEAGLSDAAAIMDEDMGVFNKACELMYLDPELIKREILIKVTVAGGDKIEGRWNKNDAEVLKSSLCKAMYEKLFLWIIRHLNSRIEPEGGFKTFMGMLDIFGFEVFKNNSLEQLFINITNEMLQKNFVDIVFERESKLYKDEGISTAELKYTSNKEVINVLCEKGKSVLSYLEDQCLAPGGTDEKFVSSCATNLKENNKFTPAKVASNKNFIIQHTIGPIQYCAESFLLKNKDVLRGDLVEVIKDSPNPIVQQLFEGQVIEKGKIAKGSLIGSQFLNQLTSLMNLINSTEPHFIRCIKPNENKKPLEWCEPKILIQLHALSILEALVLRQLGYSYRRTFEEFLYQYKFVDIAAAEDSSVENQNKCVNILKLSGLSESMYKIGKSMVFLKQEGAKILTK

[2] = molecular target: the molecule itself; experiment: as above

B1: PfActin-1 filaments (natural protein)
chain: not shown
notes: Plasmodium falciparum actin-1; ends at the final native Phe after chymotrypsin cleavage; Filamentous; unstabilised filaments were used in one motility condition; also called PfAct1; P. falciparum actin 1; not shown: His6, C-terminal, cleaved
B1: binds [1]; binds [2].
